Consider 2 proteins from doi:10.1101/2020.07.24.220665 (bioRxiv, 2020).

The data set deals with the molecule itself. The data set is described as follows: non-reducing PAGE.

Several values for one entry are separate records, joined by “and”; a condition that tells them apart may be missing. Equal entries are not always repeated.

What is called stoichiometry N is the number of molecules, sites or subunits per partner or assembly.

B1: granulin-3 (GRN-3) (natural protein, UniProt P28799 206-261, looked up)
chain: VMCPDARSRCPDGSTCCELPSGKWGCCPMPNATCCSDHLHCCPQDTVCDLIQSKCL
Consider B1, for which the “stoichiometry N” value was 2 and 3.

B2: granulin-5 (GRN-5) (natural protein, UniProt P28799 364-417, looked up)
chain: VPCDNVSSCPSSDTCCQLTSGEWGCCPIPEAVCCSDHQHCCPQGYTCVAEGQCQ
As to B2, the binding result is listed as “binds”.
